T1: E. coli RNase P holoenzyme (C5 protein + P RNA), wild type (Escherichia coli, UniProt P0A7Y8 1-119)
T1 sequence: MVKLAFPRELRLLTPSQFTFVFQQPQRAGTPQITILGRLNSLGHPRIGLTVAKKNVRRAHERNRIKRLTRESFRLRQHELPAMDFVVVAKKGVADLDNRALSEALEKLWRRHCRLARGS

T2: E. coli RNase P holoenzyme, P RNA U69A (Escherichia coli, UniProt P0A7Y8 1-119)
T2 sequence: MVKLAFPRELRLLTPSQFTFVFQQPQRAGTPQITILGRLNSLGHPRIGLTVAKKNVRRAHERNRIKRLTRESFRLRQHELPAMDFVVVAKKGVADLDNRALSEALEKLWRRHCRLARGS

T3: E. coli RNase P holoenzyme, P RNA C70U (Escherichia coli, UniProt P0A7Y8 1-119)
T3 sequence: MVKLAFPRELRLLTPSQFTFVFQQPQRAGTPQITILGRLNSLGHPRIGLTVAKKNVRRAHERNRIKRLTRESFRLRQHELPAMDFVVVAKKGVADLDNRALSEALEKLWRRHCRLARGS


Assays:
[1] = target: T1, E. coli RNase P holoenzyme (C5 protein …); assay: stopped-flow 2Ap fluorescence, global fit (k-1/k1); 17.5 mM Mg2+; k1 0.43e6 M-1 s-1, k-1 0.084 s-1; 50 mM MES pH 6, 100 mM NaCl, 17.5 mM MgCl2 (or CaCl2), 0.015% Triton X-100 reduced, 37 C (PAGE single turnover); stopped-flow in similar buffer; settings: protein: recombinant; label: 2-aminopurine; 12 bp continuous helix with one U-G wobble; 5' overhang 9 nt, 3' overhang 4 nt (GCCA)
[2] = target: T2, E. coli RNase P holoenzyme, P RNA U69A; assay: single-turnover kinetics by PAGE (K'); 17.5 mM Mg2+; imprecise, very slow cleavage; 50 mM MES pH 6, 100 mM NaCl, 17.5 mM MgCl2 (or CaCl2), 0.015% Triton X-100 reduced, 37 C (PAGE single turnover); stopped-flow in similar buffer; settings: protein: recombinant; label: 5' Cy3 on strand 1; 12 bp continuous helix with one U-G wobble; 5' overhang 9 nt, 3' overhang 4 nt (GCCA)
[3] = target: T3, E. coli RNase P holoenzyme, P RNA C70U; assay: as above; settings: protein: recombinant; label: 5' Cy3 on strand 1; 12 bp continuous helix with one U-G wobble; 5' overhang 9 nt, 3' overhang 4 nt (GCCA)
[4] = target: T1, E. coli RNase P holoenzyme (C5 protein …); assay: single-turnover kinetics by PAGE (K' from kobs vs [E]); 17.5 mM Mg2+, pH 6; K' approximates Kd; 50 mM MES pH 6, 100 mM NaCl, 17.5 mM MgCl2 (or CaCl2), 0.015% Triton X-100 reduced, 37 C (PAGE single turnover); stopped-flow in similar buffer; settings: protein: recombinant; label: 5' Cy3 on strand 1; 12 bp continuous helix with one U-G wobble; 5' overhang 9 nt, 3' overhang 4 nt (GCCA)

Binder | Kd [1] [nM] | Kd [2] [nM] | Kd [3] [nM] | Kd [4] [nM]
5'Ap(-2)-MD1 (dsRNA, 2-aminopurine at position 8 (N-2), written A; Table 1 prints a 5' Cy3 (apparently swapped with 5'Cy3-MD1)) RNA 1: ACCCAAAAUGGUCCGGGCGGG RNA 2: CCCGUCCGGACCGCCA | 195 |  |  | 
5'Cy3-MD1 (dsRNA, 2-aminopurine at position 8 (N-2) as printed, written A; Table 1 appears to swap the Cy3 between 5'Cy3-MD1 and 5'Ap(-2)-MD1) RNA 1: ACCCAAAAUGGUCCGGGCGGG RNA 2: CCCGUCCGGACCGCCA |  | < 250 | < 250 | 189

Reference: publication PMC11221534, “A minimal RNA substrate with dual fluorescent probes enables rapid kinetics and provides insight into bacterial RNase P active site interactions”
